In PMC4245193:

System: stable placental multi-protein complex SPC-1 (donor 1) (Homo sapiens (placenta, donor 1))
Test: tryptophan fluorescence quenching titration (Scatchard)
Conditions: 5' phosphate as printed (pT), 20 mM Tris-HCl pH 7.5, 150 mM NaCl, 0.3 mg/ml SPC, 25 C, excitation 283 nm, emission 338 nm

TAGAAGATCAAA [12-mer ODN]
Kd (high-affinity site (Kd1)): 0.036 µM
Kd (low-affinity site (Kd2)): 2.6 µM
